Drawing on publication PMC12216052 (2025), this text covers Kd for one molecule.

The target in assay [1] is T1, ACVR1B (Homo sapiens (Human), UniProt P36896).
T1 chain: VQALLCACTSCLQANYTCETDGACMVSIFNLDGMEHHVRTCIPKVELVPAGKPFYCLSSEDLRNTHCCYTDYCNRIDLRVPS
In words: SPR steady state, receptor-Fc on chip, monomer analyte.

Assay [2] deals with ACVR2A (Homo sapiens (Human), UniProt P27037). The assay is described as above.
Sequence of ACVR2A (P27037 25-118): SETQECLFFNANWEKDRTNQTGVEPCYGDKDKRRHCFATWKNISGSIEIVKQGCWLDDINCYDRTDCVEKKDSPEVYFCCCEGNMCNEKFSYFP

B1: DLK1 (protein)
chain: VANSCTPNPCENDGVCTDIGGDFRCRCPAGFIDKTCSRPVTNCASSPCQNGGTCLQHTQVSYECLCKPEFTGLTCVKK
One may read the Kd as the concentration at which binding is half-saturated. A high value points to a looser complex. As for B1, the Kd in assay [1] and in assay [2] was > 10 µM in each case.
